Source: US20190241648A1 (STATEN BIOTECHNOLOGY B V, published 2019)
Ends that are not written are not given here.

How the values were obtained:
Assay in all cases: cyclic peptide substitution array
ApoC3 peptide L67T = target: T1, ApoC3 peptide L67T (human, thioether (positions not given here); not fully specified (bridges); also: thioether between a C-terminal Cys side chain and a modified N-terminus, the Cys is not in the chain)
T1 peptide: DKFSEFWDTDPEV
Procedure, shortened: (§1)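 Peptide microarrays incubated with antibody samples, then stained with goat anti-human IgG (Fc) DyLight680 and anti-HA DyLight800 control antibodies, scanned at intensity 7/7 (red/green). Secondary-only pre-stain checked background binding; framing HA peptides served as quality control; substitution effects read as changes in spot intensity.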

ApoC3 peptide F61H = target: T2, ApoC3 peptide F61H (human, cyclic (thioether))
T2 peptide: DKHSEFWDLDPEV
Procedure, shortened: as §1

ApoC3 peptide E63D = target: T3, ApoC3 peptide E63D (human, not fully specified; cyclic (thioether))
T3 peptide: DKFSDFWDLDPEV
Procedure, shortened: as §1

ApoC3 peptide P69H = target: T4, ApoC3 peptide P69H (human, not fully specified; cyclic (thioether))
T4 peptide: DKFSEFWDLDHEV
Procedure, shortened: as §1

ApoC3 peptide L67G = target: T5, ApoC3 peptide L67G (human, thioether (positions not given here); not fully specified (bridges); also: thioether between a C-terminal Cys side chain and a modified N-terminus, the Cys is not in the chain)
T5 peptide: DKFSEFWDGDPEV
Procedure, shortened: as §1

ApoC3 peptide D68G = target: T6, ApoC3 peptide D68G (human, cyclic (thioether))
T6 peptide: DKFSEFWDLGPEV
Procedure, shortened: as §1

ApoC3 peptide E63G = target: T7, ApoC3 peptide E63G (human, not fully specified; cyclic (thioether))
T7 peptide: DKFSGFWDLDPEV
Procedure, shortened: as §1

ApoC3 peptide V71S = target: T8, ApoC3 peptide V71S (human, not fully specified; cyclic (thioether))
T8 peptide: DKFSEFWDLDPES
Procedure, shortened: as §1

ApoC3 peptide F64M = target: T9, ApoC3 peptide F64M (human, thioether (positions not given here); not fully specified (bridges); also: cyclic (thioether), positions not given here)
T9 peptide: DKFSEMWDLDPEV
Procedure, shortened: as §1

ApoC3 peptide E70I = target: T10, ApoC3 peptide E70I (human, cyclic (thioether))
T10 peptide: DKFSEFWDLDPIV
Procedure, shortened: as §1

ApoC3 peptide F64S = target: T11, ApoC3 peptide F64S (human, thioether (positions not given here); not fully specified (bridges); also: cyclic (thioether), positions not given here)
T11 peptide: DKFSESWDLDPEV
Procedure, shortened: as §1

ApoC3 peptide P69E = target: T12, ApoC3 peptide P69E (human, not fully specified; cyclic (thioether))
T12 peptide: DKFSEFWDLDEEV
Procedure, shortened: as §1

ApoC3 peptide E70V = target: T13, ApoC3 peptide E70V (human, cyclic (thioether))
T13 peptide: DKFSEFWDLDPVV
Procedure, shortened: as §1

ApoC3 peptide W65P = target: T14, ApoC3 peptide W65P (human, cyclic (thioether))
T14 peptide: DKFSEFPDLDPEV
Procedure, shortened: as §1

ApoC3 peptide V71A = target: T15, ApoC3 peptide V71A (human, thioether (positions not given here); also: cyclic (thioether), ring places not given here)
T15 peptide: DKFSEFWDLDPEA
Procedure, shortened: as §1

ApoC3 peptide W65D = target: T16, ApoC3 peptide W65D (human, not fully specified; cyclic (thioether))
T16 peptide: DKFSEFDDLDPEV
Procedure, shortened: as §1

ApoC3 peptide D68E = target: T17, ApoC3 peptide D68E (human, cyclic (thioether))
T17 peptide: DKFSEFWDLEPEV
Procedure, shortened: as §1

ApoC3 peptide F64P = target: T18, ApoC3 peptide F64P (human, thioether (positions not given here); not fully specified (bridges); also: cyclic (thioether), positions not given here)
T18 peptide: DKFSEPWDLDPEV
Procedure, shortened: as §1

ApoC3 peptide F64C = target: T19, ApoC3 peptide F64C (human, cyclic (thioether))
T19 peptide: DKFSECWDLDPEV
Procedure, shortened: as §1

ApoC3 peptide L67I = target: T20, ApoC3 peptide L67I (human, thioether (positions not given here); not fully specified (bridges); also: thioether between a C-terminal Cys side chain and a modified N-terminus, the Cys is not in the chain)
T20 peptide: DKFSEFWDIDPEV
Procedure, shortened: as §1

ApoC3 peptide L67W = target: T21, ApoC3 peptide L67W (human, thioether (positions not given here); not fully specified (bridges); also: thioether between a C-terminal Cys side chain and a modified N-terminus, the Cys is not in the chain)
T21 peptide: DKFSEFWDWDPEV
Procedure, shortened: as §1

ApoC3 peptide D68K = target: T22, ApoC3 peptide D68K (human, cyclic (thioether))
T22 peptide: DKFSEFWDLKPEV
Procedure, shortened: as §1

ApoC3 peptide P69S = target: T23, ApoC3 peptide P69S (human, not fully specified; cyclic (thioether))
T23 peptide: DKFSEFWDLDSEV
Procedure, shortened: as §1

ApoC3 peptide F64I = target: T24, ApoC3 peptide F64I (human, thioether (positions not given here); not fully specified (bridges); also: cyclic (thioether), positions not given here)
T24 peptide: DKFSEIWDLDPEV
Procedure, shortened: as §1

ApoC3 peptide D59L = target: T25, ApoC3 peptide D59L (human, thioether (positions not given here); not fully specified (C-terminus, bridges))
T25 peptide: LKFSEFWDLDPEV
Procedure, shortened: as §1

ApoC3 peptide E70N = target: T26, ApoC3 peptide E70N (human, cyclic (thioether))
T26 peptide: DKFSEFWDLDPNV
Procedure, shortened: as §1

ApoC3 peptide P69C = target: T27, ApoC3 peptide P69C (human, thioether (positions not given here); not fully specified (bridges); also: thioether from modified N-terminus to C-terminal Cys (Cys not in chain))
T27 peptide: DKFSEFWDLDCEV
Procedure, shortened: as §1

ApoC3 peptide L67R = target: T28, ApoC3 peptide L67R (human, thioether (positions not given here); not fully specified (bridges); also: thioether between a C-terminal Cys side chain and a modified N-terminus, the Cys is not in the chain)
T28 peptide: DKFSEFWDRDPEV
Procedure, shortened: as §1

B1: Llama antibody 5E5 (antibody, V domains shown)
VH: QLQLVESGGGLVQPGGSLRLSCAASGFTFGTYSMRWVRQVPRKALEWVSSISTDGGGTAYRDSVKGRFTISRDNAKNTLYLQMNNLKPEDTAIYYCVIAGYSDWGQGTQVTVSS
VL: ATMLTQSPGSLSVVPGESASISCKTSQGLVHSDGKTYFYWFLQKPGQSPQQLIYQVSNRASGVPDRFTGSGSGTDFTLKISGVKAEDAGVYYCAQGTYYPHTFGSGTRLEIK
notes: detected with goat anti-human IgG (Fc); also called mAb 5E5
For B1, the “% of binding to wild-type peptide” value (ApoC3 peptide L67T) was 168%, the “% of binding to wild-type peptide” value (ApoC3 peptide F61H) was 12.1% and the “% of binding to wild-type peptide” value (ApoC3 peptide E63D) was 29.9%. The “% of binding to wild-type peptide” value (ApoC3 peptide P69H) was 10.7%, the “% of binding to wild-type peptide” value (ApoC3 peptide L67G) was 35.2% and the “% of binding to wild-type peptide” value (ApoC3 peptide D68G) was 3.59%. For the same binder, the “% of binding to wild-type peptide” value (ApoC3 peptide E63G) was 0%, the “% of binding to wild-type peptide” value (ApoC3 peptide V71S) was 74.1% and the “% of binding to wild-type peptide” value (ApoC3 peptide F64M) was 132%. The “% of binding to wild-type peptide” value (ApoC3 peptide E70I) was 65.6%, the “% of binding to wild-type peptide” value (ApoC3 peptide F64S) was 367% and the “% of binding to wild-type peptide” value (ApoC3 peptide P69E) was 43%. The “% of binding to wild-type peptide” value (ApoC3 peptide E70V) was 57%, the “% of binding to wild-type peptide” value (ApoC3 peptide W65P) was 0% and the “% of binding to wild-type peptide” value (ApoC3 peptide V71A) was 66.3%. The “% of binding to wild-type peptide” value (ApoC3 peptide W65D) was 0%, the “% of binding to wild-type peptide” value (ApoC3 peptide D68E) was 40.1% and the “% of binding to wild-type peptide” value (ApoC3 peptide F64P) was 528%. The “% of binding to wild-type peptide” value (ApoC3 peptide F64C) was 51%, the “% of binding to wild-type peptide” value (ApoC3 peptide L67I) was 46.9% and the “% of binding to wild-type peptide” value (ApoC3 peptide L67W) was 1.45%. The “% of binding to wild-type peptide” value (ApoC3 peptide D68K) was 0.04%, the “% of binding to wild-type peptide” value (ApoC3 peptide P69S) was 86.9% and the “% of binding to wild-type peptide” value (ApoC3 peptide F64I) was 69.3%. The “% of binding to wild-type peptide” value (ApoC3 peptide D59L) was 33.6%, the “% of binding to wild-type peptide” value (ApoC3 peptide E70N) was 49.6% and the “% of binding to wild-type peptide” value (ApoC3 peptide P69C) was 3.72%. The “% of binding to wild-type peptide” value (ApoC3 peptide L67R) was 15.4%.
